Source: patent US20250011413A1 (MCMASTER UNIVERSITY, published 2025)
Numbering of substitutions follows the chain as printed. Names and notes keep the numbering of the source.

Columns and labels:
[1] = target: T1, PF4/heparin complex (human PF4 complexed with heparin) (human, UniProt P02776 32-101); assay: competition EIA, scFv 50 µg/mL; competitor HIT-positive sera antibodies, n=10
T1 construct: Multimeric complex of PF4 with heparin (not a protein); In the EIAs: PF4 captured on biotinylated heparin on streptavidin plates; In the SRA: platelets with 0.2 U/mL heparin; also called PF4 and heparin complexes
T1 sequence: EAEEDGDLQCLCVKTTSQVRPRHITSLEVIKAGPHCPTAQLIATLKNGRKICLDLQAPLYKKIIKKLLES

[2] = target: T2, Human PF4 (CXCL4), biotinylated, without heparin (human, UniProt P02776 32-101, biotinylated with EZ-link-Sulfo-NHS-LC-Biotin (sites not given)); assay: BLI (Octet), biotinylated PF4 without heparin on streptavidin sensors, scFv at 1 µg/mL, 1:1 model, mean ± s.d. [cont.) b]
T2 construct: Immobilised on streptavidin biosensors for BLI; also called PF4 alone; platelet factor 4
T2 sequence: T1 sequence
Procedure: BLI experiments were performed using wildtype scFv, mutant B, mutant C, mutant D, mutant E, and mutant F at 1 μg/mL. Binding was measured against immobilized biotinylated PF4 on streptavidin biosensors. b) Table showing kinetic data of wildtype and mutant scFv, including binding responses and association and dissociation rates. All data was analyzed based on a 1:1 homogenous ligand binding model using Octet® User Software version 3.1.
(§1) The Octet-QK Red 96 (FortéBio, Menlo Park, CA) instrumentation was used to conduct all BLI experiments. A 96-well microtiter plate (black, flat-bottom) was used to hold 200 μL per well of either sample or buffer. Pre-coated streptavidin biosensor tips (FortéBio) were hydrated in phosphate buffered saline (PBS) containing 1% bovine serum albumin (BSA, Sigma-Aldrich) before performing all kinetic assays. Each step was performed at an operating temperature of 23° C. with agitation at 1000 rpm. Streptavidin tips were first equilibrated in PBS+1% BSA to establish a baseline. […] The PF4-coated tips were then dipped into PBS+1% BSA for 13 minutes to re-establish a baseline. Tips were then incubated in an analyte solution containing half-fold dilutions of wildtype scFv (4.0, 2.0, 1.0, 0.5, 0.25 μg/mL in PBS+1% BSA) for 10 minutes to measure association. For mutant scFv association, tips were incubated in an analyte solution containing 200 μL of each mutant and wildtype scFv at a final concentration of 1 μg/mL in PBS+1% BSA. Antibody dissociation steps were performed by dipping sensors in wells containing PBS+1% BSA for 56 minutes. The following negative controls included in these kinetic experiments were also measured: 200 μL of buffer to replace both the antigen and scFv and 200 μL buffer replacing scFv only. Each experiment was performed with PF4 or with PF4/heparin as the immobilized antigen.
BLI experiments were performed to evaluate binding responses and affinities of wildtype and mutant scFv. Biotinylated PF4 alone or complexed with heparin was immobilized on streptavidin biosensors and used to capture wildtype scFv.

[3] = target: T2, Human PF4 (CXCL4), biotinylated, …; assay: BLI (Octet), biotinylated PF4 without heparin on streptavidin sensors, 1:1 model; scFv at 1.0 µg/mL
Procedure: as §1
(§2) BLI experiments were performed to evaluate binding responses and affinities of wildtype and mutant scFv. Biotinylated PF4 alone or complexed with heparin was immobilized on streptavidin biosensors and used to capture wildtype scFv. Half-fold serial dilutions of wildtype scFv ranging from 0.25 μg/mL to 4 μg/mL were used to determine the optimal concentrations for future experiments PF4 (PF4 FIG. 3; PF4/heparin FIG. 4).

[4] = target: T1, PF4/heparin complex (human PF4 …); assay: BLI (Octet), biotinylated PF4/heparin on streptavidin sensors, 1:1 model; scFv at 0.5 µg/mL (response near baseline, software limit value)
Procedure: as §1, with “antigen. […]” for “antigen.”

[5] = target: T2, Human PF4 (CXCL4), biotinylated, …; assay: BLI (Octet), biotinylated PF4 without heparin on streptavidin sensors, scFv 1 µg/mL
Procedure: as §1, §2

[6] = target: T2, Human PF4 (CXCL4), biotinylated, …; assay: BLI (Octet), biotinylated PF4 without heparin on streptavidin sensors, scFv 1 µg/mL, 1:1 model
Procedure: as §1, §2

[7] = target: T1, PF4/heparin complex (human PF4 …); assay: competition EIA, scFv 50 µg/mL; competitor HIT-positive sera antibodies, n=10; remark: listed apart in the source
Procedure: Inhibitory PF4/heparin IgG-specific Streptavidin Enzyme Immunoassay (EIA). The binding activity of wildtype and mutant scFv antibodies to PF4/heparin complexes was measured using an inhibitory PF4/heparin IgG-specific EIA with a streptavidin-biotin capture system. Before performing this protocol, 96-well NUNC Maxisorp plates (ThermoFisher) were coated with 10 μg/mL streptavidin for 24 h. Plates were then blocked with 3% bovine serum albumin (BSA) in phosphate buffered saline (PBS) for 2 h at room temperature. Plates were then coated with 1 U/mL biotinylated-heparin for 1 h followed by 30 μg/mL PF4 for 1 h. Increasing concentrations of wildtype or mutant scFv were added and incubated for 1 hr at room temperature. Without removing wildtype or scFv, HIT patient sera in a 1:50 dilution or full-length KKO (2 μg/mL) was then incubated for 1 h at room temperature. After washing, alkaline phosphatase-conjugated anti-human or anti-mouse IgG (Jackson Immuno Research Laboratories, Inc., West Grove, PA) was added at a 1:4000 dilution and incubated for 1 h temperature. For detection, 1 mg/mL p-nitrophenylphosphate (PNPP, Sigma-Aldrich) substrate dissolved in 1 mol/L diethanolamine (DEA) buffer (pH 9.6) was added. The optical density (OD) was measured at 2 min intervals for 30 min at 405 nm (OD₄₀₅ₙₘ) using a BioTek 800 TS plate reader (BioTek Instruments Inc., Winooski, VT) to determine if anti-PF4/heparin antibody binding was inhibited. Results were reported as a decrease in OD (absorbance at 405 nm) from baseline levels.
Inhibiting HIT-Positive (EIA+/SRA+) HIT-Negative (EIA+/SRA−) antibody binding: Sera (n=10) from confirmed HIT-positive patients (EIA-positive/SRA-positive) containing anti-PF4/heparin antibodies were used in a modified streptavidin-biotin based anti-PF4/heparin IgG EIA (streptavidin anti-PF4/hep EIA) with scFv at 50 μg/mL. On average, antibody binding to PF4/heparin was reduced in the presence of scFv.

B1: Wildtype scFv (KKO-derived single chain variable fragment) (scFv)
scFv: DIQMIQSQKFMSTSVGDRVTVTCKASQNVGTNVAWYQQKPGQSPNALIYSASYRYSGVPDRFTGSGSGTDFTLTITNVQSEDLADYFCQQYNSYPLTFGTGTKLDLKGGGGSGGGGSGGGGSVQLQQSGAELVKPGASVKLSCKASGYTFTNYFIYWVKQRPGQGLEWIGEINPRNGDTDFNEKFESRATLTVDKSSSTAYMQLSSLTSEDSAIYYCTRSPYGNNYGFTYWGQGTLVTVSA
notes: VL-(G4S)3 linker-VH; expressed in E. coli BL21 from pADL-22c, purified on Ni-NTA as histidine-tagged scFv, about 28 kDa; also called WT; KKO-scFv; not shown: histidine tag from the pADL-22c vector
- mean % inhibition of serum antibody binding [1]: 44.7%
- koff [2]: 0.00255 s⁻¹
- kon [2]: 12500 M⁻¹ s⁻¹
- Kd [3]: 5.71 nM
- koff [3]: 0.000853 s⁻¹
- kon [3]: 149000 M⁻¹ s⁻¹
- Kd [4]: < 0.001 nM
- average binding response (wavelength shift) [5]: 0.0386 nm
- Kd [6]: 1320 nM
- mean OD405nm of bound serum IgG (+ scFv) [7]: 0.931 OD405nm

B2: Mutant B scFv, scFv(R18K, N152K, D180N) (scFv)
scFv: B1 scFv with R18K, N152K, D180N
notes: VL-linker-VH; histidine-tagged, from E. coli BL21; also called Mut B; not shown: histidine tag from the pADL-22c vector
- mean % inhibition of serum antibody binding [1]: 77.8%
- koff [2]: 5.07e-05 s⁻¹
- kon [2]: 30200 M⁻¹ s⁻¹
- average binding response (wavelength shift) [5]: 0.267 nm
- fold increase of binding response against wildtype scFv [5]: 7 fold
- Kd [6]: 1.69 nM
- fold change of KD against wildtype scFv [6]: 1000 fold
- mean OD405nm of bound serum IgG (+ scFv) [7]: 0.275 OD405nm

B3: Mutant F scFv, scFv(E183V, E186K, G223R) (scFv)
scFv: B1 scFv with E183V, E186K, G223R
notes: VL-linker-VH; histidine-tagged, from E. coli BL21; also called Mut F; not shown: histidine tag from the pADL-22c vector
- mean % inhibition of serum antibody binding [1]: 80%
- koff [2]: 2.52e-05 s⁻¹
- kon [2]: 42200 M⁻¹ s⁻¹
- average binding response (wavelength shift) [5]: 0.211 nm
- fold increase of binding response against wildtype scFv [5]: 5 fold
- Kd [6]: 0.607 nM
- mean OD405nm of bound serum IgG (+ scFv) [7]: 0.281 OD405nm

B4: Mutant D scFv, scFv(Y156H) (scFv)
scFv: B1 scFv with Y156H
notes: VL-linker-VH; histidine-tagged, from E. coli BL21; also called Mut D; not shown: histidine tag from the pADL-22c vector
- mean % inhibition of serum antibody binding [1]: 78.3%
- koff [2]: 0.000103 s⁻¹
- kon [2]: 25700 M⁻¹ s⁻¹
- average binding response (wavelength shift) [5]: 0.145 nm
- fold higher binding response than wildtype scFv [5]: ≥ 3 fold
- Kd [6]: 5.83 nM
- fold stronger affinity than wildtype scFv [6]: 1000 fold
- mean OD405nm of bound serum IgG (+ scFv) [7]: 0.283 OD405nm

B5: Mutant E scFv, scFv(Y156H, D180G, Q233P) (scFv)
scFv: B1 scFv with Y156H, R175K, D180G, Q233P
notes: VL-linker-VH; histidine-tagged, from E. coli BL21; also called Mut E; not shown: histidine tag from the pADL-22c vector
- mean % inhibition of serum antibody binding [1]: 76.5%
- koff [2]: 0.000124 s⁻¹
- kon [2]: 69300 M⁻¹ s⁻¹
- average binding response (wavelength shift) [5]: 0.0986 nm
- fold higher binding response than wildtype scFv [5]: 2 fold
- Kd [6]: 0.954 nM
- fold stronger affinity than wildtype scFv [6]: 10000 fold
- mean OD405nm of bound serum IgG (+ scFv) [7]: 0.319 OD405nm
